Results from the supplement of paper PMC10724198.
± gives the standard deviation of the averaged measurements.

System: Saccharomyces cerevisiae
Assay: protein stability index of tFT-peptide fusion (C-terminal peptide) (PSI (0-1 scale)); higher = more stable (slower turnover)
Conditions: genetic background: wild type; temperature: 30 C
Description: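 Multiplexed protein stability (MPS) profiling in S. cerevisiae. Random 12-aa peptides (tFT-X12 library) are fused to the C-terminus of a sfGFP-mCherry tandem fluorescent timer, after mCherry and a GGGS linker. Cells are FACS-sorted into 8 mCherry/sfGFP bins and deep-sequenced. The protein stability index (PSI) is the read-weighted bin average, scaled from 0 (unstable) to 1 (stable). Only peptides with >10 reads are reported; cells were grown at 30 °C in SC-His with glucose.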
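Also: PSI is a weighted mean of sequencing reads over stability bins, variants kept only with over 10 reads, mCherry proximal and sfGFP distal, peptide attached via GGGS linker.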

Sequence	protein stability index
GRGKKRKERAER	0.649 ± 0.045
GRGRWRGGVAVE	0.802 ± 0.13
GRGRWRSVYLRG	0.622 ± 0.0078
GRGVWEFGGGGG	0.666 ± 0.056
GRIPELVWWLDD	0.76 ± 0.037
GRIVPSFQGSPQ	0.723 ± 0.093
GRKGGEGERERT	0.6715 ± 0.0049
GRKRWVRLSLAC	0.563 ± 0.028
GRKVPQRRQSAR	0.749 ± 0.015
GRLGSTRRPPSG	0.701 ± 0.0095
GRLIERCSLRMT	0.68 ± 0.055
GRLKSTSTIRRF	0.722 ± 0.021
GRLLCFLFCCSS	0.603 ± 0.035
GRLRGGGPVAAR	0.692 ± 0.053
GRLRNVSLLSFC	0.662 ± 0.011
GRPHRYWRVVPY	0.68 ± 0.036
GRPKGGGIGEAG	0.6928 ± 0.00079
GRPKNSYNQNSG	0.747 ± 0.013
GRPLRAPPPPSP	0.65 ± 0.043
GRPYEHVVDPWR	0.733 ± 0.029
GRRFCYQASAGQ	0.642 ± 0.0093
GRRGCSGGLKGL	0.675 ± 0.039
GRRGGGTGAPSR	0.65 ± 0.05
GRRVVRGWLVRR	0.683 ± 0.095
GRRWGGERVREG	0.66 ± 0.015

Sequence	protein stability index
GRRWPVPGGVSA	0.693 ± 0.09
GRSPMGDGGFFS	0.7284 ± 0.0034
GRTKFIPTPSTY	0.712 ± 0.023
GRVQARGRPGLD	0.632 ± 0.045
GRWGRGGASVVT	0.649 ± 0.029
GSACSLCGLYFN	0.709 ± 0.073
GSCVVRKFGKRS	0.681 ± 0.016
GSDDLVSVSSAE	0.708 ± 0.028
GSDEVGTGWGRL	0.669 ± 0.13
GSFFFFLAPSYF	0.636 ± 0.014
GSGAQVERCRWE	0.719 ± 0.02
GSGGLRVVCLLM	0.653 ± 0.027
GSGRNMHLRGSL	0.65 ± 0.019
GSGTGRWPGYGS	0.718 ± 0.088
GSILPSGFLSFA	0.7472 ± 0.003
GSLGTTTILRKT	0.67 ± 0.064
GSLLSEERGRYW	0.75 ± 0.026
GSNKWATANKYG	0.6561 ± 0.0033
GSPLASSPSVID	0.704 ± 0.041
GSPPSPPLPPPP	0.674 ± 0.023
GSPTSAPLSPPP	0.686 ± 0.0038
GSQSPKEEYHES	0.632 ± 0.045
GSRAECWEVGGV	0.6742 ± 0.004
GSRPVSAGCAYS	0.655 ± 0.038
GSSGGVWPDLNY	0.701 ± 0.012

Sequence	protein stability index
GSSGQPDSPPIS	0.684 ± 0.015
GSSLRRLPASCD	0.676 ± 0.066
GSSQGCLICSIA	0.649 ± 0.049
GSTNNHEVTENI	0.688 ± 0.013
GSTRHFMSEKRE	0.743 ± 0.079
GSTSSSFPVSIR	0.727 ± 0.045
GSVGFPDRLLCL	0.73 ± 0.033
GSVLPPPAPPPL	0.674 ± 0.021
GSVSWVLMWSWG	0.623 ± 0.059
GSWAVQEHMLLE	0.728 ± 0.065
GSWGEGGVAVGG	0.653 ± 0.032
GSWRVLVLLGEL	0.636 ± 0.029
GTCGDRGRGGER	0.559 ± 0.023
GTDRRGRDAPHS	0.586 ± 0.031
GTEYDENSGTNE	0.642 ± 0.011
GTGDGRHRCRWN	0.6655 ± 0.006
GTGGRMIRWGLG	0.667 ± 0.061
GTGQSRAEGARP	0.672 ± 0.015
GTLPLGVRGGLK	0.657 ± 0.081
GTQTITAQRAAA	0.643 ± 0.015
GTRGGGGWSCES	0.701 ± 0.06
GTRRIDSKDICP	0.742 ± 0.04
GTRVGRARGGRK	0.835 ± 0.047
GTSDPRGSGPAG	0.715 ± 0.015
GTVGTGFGGGVE	0.677 ± 0.12

Sequence	protein stability index
GTVTVLVGVHWE	0.539 ± 0.008
GTWEGDTSACAR	0.636 ± 0.047
GVAEGRKVGAST	0.654 ± 0.036
GVAKRGREGCWS	0.569 ± 0.065
GVAVVSGREGRG	0.7809 ± 0.0063
GVCGRWWTCMGV	0.722 ± 0.061
GVCRGSRVGLVP	0.714 ± 0.025
GVCRVAVGGGAT	0.713 ± 0.033
GVCSRAVGSGSF	0.715 ± 0.067
GVDGGGKWRGWG	0.651 ± 0.06
GVFASWAWFGVG	0.71 ± 0.046
GVFGFGARLCIG	0.6782 ± 0.0043
GVFGLMVGWGWA	0.665 ± 0.083
GVFGWAGCGVVL	0.7188 ± 0.0043
GVGGFGFGWSMV	0.725 ± 0.057
GVGGGRRGGGGG	0.6409 ± 0.0036
GVGLDSMCVEGF	0.723 ± 0.1
GVGLLAHLLIYR	0.556 ± 0.0086
GVGREGEIGGGG	0.544 ± 0.037
GVGRVGLACFVV	0.542 ± 0.029
GVGWRGGCEGGV	0.711 ± 0.062
GVIRGNRLELIV	0.618 ± 0.025
GVKMVHERHNRV	0.665 ± 0.057
